Experiments:
[1] = molecular target: GAD-E2F-5/LexA-DP-1 in yeast (Mus musculus) (UniProt Q61502+Q08639); test: cell_activity; settings: yeast lacZ reporter
[2] = test system: HA-E2F-5/DP-1 in cells (Homo sapiens); test: cell_activity; settings: U2-OS CAT reporter; E2F-5 plus DP-1

Sequence of GAD-E2F-5/LexA-DP-1 in yeast (Mus musculus) (Q61502 whole entry, chain 1 of 2): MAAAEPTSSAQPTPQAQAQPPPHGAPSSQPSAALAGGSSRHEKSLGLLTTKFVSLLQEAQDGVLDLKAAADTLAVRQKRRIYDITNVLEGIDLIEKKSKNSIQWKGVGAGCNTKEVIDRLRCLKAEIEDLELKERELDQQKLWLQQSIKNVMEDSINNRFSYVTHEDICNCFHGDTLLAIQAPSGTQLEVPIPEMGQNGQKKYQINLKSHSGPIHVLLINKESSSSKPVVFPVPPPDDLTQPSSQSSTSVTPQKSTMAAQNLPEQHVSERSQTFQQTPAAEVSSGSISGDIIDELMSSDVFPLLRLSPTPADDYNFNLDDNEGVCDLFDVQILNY
Sequence of GAD-E2F-5/LexA-DP-1 in yeast (Mus musculus) (Q08639 whole entry, chain 2 of 2): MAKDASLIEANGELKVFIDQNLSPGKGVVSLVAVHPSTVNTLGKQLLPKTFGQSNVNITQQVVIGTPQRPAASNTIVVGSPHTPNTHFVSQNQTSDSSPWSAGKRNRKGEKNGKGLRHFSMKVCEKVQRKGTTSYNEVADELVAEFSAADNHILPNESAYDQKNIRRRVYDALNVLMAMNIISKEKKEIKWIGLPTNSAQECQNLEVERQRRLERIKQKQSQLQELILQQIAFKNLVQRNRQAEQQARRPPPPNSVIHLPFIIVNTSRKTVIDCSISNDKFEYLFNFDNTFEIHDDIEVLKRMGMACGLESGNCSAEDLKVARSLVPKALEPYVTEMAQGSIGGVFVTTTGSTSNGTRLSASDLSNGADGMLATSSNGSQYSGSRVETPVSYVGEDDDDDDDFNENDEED

Row | Substance | activity (fold activation) [1] | activity (fold activation) [2]
1 | p4xWT CYC1 reporter, four wild-type E2F sites | > 6 | –
2 | E2F4-CAT reporter, four E2F sites | – | > 100

Source: patent US20030022260
